# Assay results taken from patent US20240016900.
# B1: MMP1 (matrix metalloproteinase 1) (protein)
# chain: FVLTEGNPRWEQTHLTYRIENYTPDLPRADVDHAIEKAFQLWSNVTPLTFTKVSEGQADIMISFVRGDHRDNSPFDGPGGNLAHAFQPGPGIGGDAHFDEDERWTNNFREYNLHRVAAHELGHSLGLSHSTDIGALMYPSYTFSGDVQLAQDDIDGIQAIYGRSQNPVQPIGPQTPKACDSKLTFDAITTIRGEVMFFKDRFYMRTNPFYPEVELNFISVFWPQLPNGLEAAYEFADRDEVRFFKGNKYWAVQGQNVLHGYPKDIYSSFGFPRTVKHIDAALSEENTGKTYFFVANKYWRYDEYKRSMDPGYPKMIAHDFPGIGHKVDAVFMKDGFFYFFHGTRQYKFDPKTKRILTLQKANSWFNCRKN
# Target: Human type I collagen, P02452
# Sequence (P02452 162-1218, chain 1 of 2): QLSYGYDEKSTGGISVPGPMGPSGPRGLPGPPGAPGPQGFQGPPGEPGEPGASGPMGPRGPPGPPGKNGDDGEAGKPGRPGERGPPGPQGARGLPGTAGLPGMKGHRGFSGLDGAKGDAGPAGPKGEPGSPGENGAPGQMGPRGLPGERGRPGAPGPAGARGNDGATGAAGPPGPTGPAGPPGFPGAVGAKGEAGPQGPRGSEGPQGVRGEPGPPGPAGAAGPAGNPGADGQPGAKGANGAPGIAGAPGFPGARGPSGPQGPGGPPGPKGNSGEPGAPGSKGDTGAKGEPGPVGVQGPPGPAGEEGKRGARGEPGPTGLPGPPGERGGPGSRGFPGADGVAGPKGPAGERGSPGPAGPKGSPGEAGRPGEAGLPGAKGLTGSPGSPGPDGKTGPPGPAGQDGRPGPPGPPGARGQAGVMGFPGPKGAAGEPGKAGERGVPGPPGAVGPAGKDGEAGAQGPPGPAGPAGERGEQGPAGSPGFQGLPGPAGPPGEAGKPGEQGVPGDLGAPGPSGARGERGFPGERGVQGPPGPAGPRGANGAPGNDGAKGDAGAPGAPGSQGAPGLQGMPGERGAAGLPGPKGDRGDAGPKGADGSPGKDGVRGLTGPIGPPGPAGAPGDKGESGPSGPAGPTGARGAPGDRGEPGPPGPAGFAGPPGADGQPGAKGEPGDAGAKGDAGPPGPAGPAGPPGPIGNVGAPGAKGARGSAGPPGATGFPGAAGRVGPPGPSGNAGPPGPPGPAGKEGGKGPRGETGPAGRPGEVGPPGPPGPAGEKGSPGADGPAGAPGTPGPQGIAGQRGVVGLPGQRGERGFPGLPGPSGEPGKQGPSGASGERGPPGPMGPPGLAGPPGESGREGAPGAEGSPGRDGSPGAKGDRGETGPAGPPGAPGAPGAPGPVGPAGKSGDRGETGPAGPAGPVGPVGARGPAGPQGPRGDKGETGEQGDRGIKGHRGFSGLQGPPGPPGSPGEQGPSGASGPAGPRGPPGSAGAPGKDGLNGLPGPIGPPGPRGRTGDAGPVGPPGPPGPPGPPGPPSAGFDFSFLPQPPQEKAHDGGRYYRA
# Sequence (chain, as listed by the source, chain 2 of 2): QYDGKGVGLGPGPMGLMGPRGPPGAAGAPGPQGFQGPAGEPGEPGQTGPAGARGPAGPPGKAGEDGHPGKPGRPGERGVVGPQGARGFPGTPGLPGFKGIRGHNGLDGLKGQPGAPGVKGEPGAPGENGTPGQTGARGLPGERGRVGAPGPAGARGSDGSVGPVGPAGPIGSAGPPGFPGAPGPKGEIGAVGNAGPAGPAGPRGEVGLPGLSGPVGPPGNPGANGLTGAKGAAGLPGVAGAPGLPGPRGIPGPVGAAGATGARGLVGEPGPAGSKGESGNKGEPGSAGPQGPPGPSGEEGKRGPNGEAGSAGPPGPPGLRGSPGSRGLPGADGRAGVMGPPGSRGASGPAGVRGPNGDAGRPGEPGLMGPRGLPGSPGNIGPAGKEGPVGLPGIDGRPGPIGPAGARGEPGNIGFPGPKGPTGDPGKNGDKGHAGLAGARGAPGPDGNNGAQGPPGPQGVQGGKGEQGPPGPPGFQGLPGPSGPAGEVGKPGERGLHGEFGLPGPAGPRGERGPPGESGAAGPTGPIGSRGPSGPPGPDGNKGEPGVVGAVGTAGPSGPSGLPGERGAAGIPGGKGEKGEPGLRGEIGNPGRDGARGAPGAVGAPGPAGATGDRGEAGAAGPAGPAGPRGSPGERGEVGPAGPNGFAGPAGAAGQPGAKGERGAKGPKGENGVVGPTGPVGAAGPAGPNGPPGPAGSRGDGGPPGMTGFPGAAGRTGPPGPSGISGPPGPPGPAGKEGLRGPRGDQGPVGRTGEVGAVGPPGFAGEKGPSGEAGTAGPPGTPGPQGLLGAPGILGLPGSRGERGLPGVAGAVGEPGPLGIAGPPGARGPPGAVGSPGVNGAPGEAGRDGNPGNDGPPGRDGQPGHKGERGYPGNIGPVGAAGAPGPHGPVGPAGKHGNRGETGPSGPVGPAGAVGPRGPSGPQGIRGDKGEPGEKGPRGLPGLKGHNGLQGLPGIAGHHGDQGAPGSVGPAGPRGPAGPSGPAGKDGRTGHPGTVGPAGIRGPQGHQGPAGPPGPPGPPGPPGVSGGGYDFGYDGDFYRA
protein,measurement,value
B1,"collagen fiber, fibril and network structure on a substrate, by atomic force microscopy","MMP-treated samples, however, showed a substantial amount of disorganized collagen and little remaining fiber/fibril formation"
same,"collagen fiber, fibril and network structure on a substrate, by scanning electron microscopy","MMP treatment of the substrate resulted in a readily observable amount of disruption of the collagen fibers, fibrils and network"
